Measured values as given in publication PMC2553180.

Tests used:
[1] = biological target: previously unrecognized receptor on the RBC (receptor for PfRH5) (human (endogenous in erythrocytes)); assay: other fluorescence titration; competition: 2 µM rhodamine-rRH5 with 25 µl packed RBC ghosts in PBS and increasing unlabeled rRH5 (0.1 to 400 µM), 2 h at RT, bound labeled rRH5 by spectrofluorimetry
[2] = biological target: previously unrecognized receptor on the RBC (receptor for PfRH5) (human (endogenous in erythrocytes)); assay: other fluorescence titration; […] fit for identical independent binding sites

Row | Substance | IC50 [1] [µM] | Kd [2] [µM]
1 | recombinant PfRH5 protein (rRH5), 143-aa fragment Asn-31 to Val-174, GST fusion (domain or fragment) | 50 | 
2 | rhodamine-labeled rRH5 (domain or fragment) |  | 12
